Patent publication US20250136699A1 (JIANGSU BIOJETAY BIOTECHNOLOGY, published 2025)

What was measured:
[1] = target: T1, Human recombinant FCGRT & B2M Heterodimer Protein (hFcRn) (human, UniProt P55899 24-297; P61769 21-119); test: ELISA: hFcRn coated (1 ug/mL), antibody (IgG4) titrated, goat anti-human IgG Fab-HRP, OD450
T1 construct: Bought protein; also called human FcRn
Description: hFcRn binding of purified full-length chimeric antibodies: The hFcRn antigen binding ELISA was performed on the purified full-length chimeric antibodies (reformatted as IgG4). Briefly, plates were coated overnight at 4° C. with 1 μg/mL of hFcRn (cat #CT009-H08H) in PBS. After removing the coating solution, the wells were blocked by adding blocking buffer and incubated at room temperature for 1 hour. Plates were then washed 6 times with wash buffer. Serial dilutions of purified antibodies in PBS were added to individual wells followed by incubation at room temperature for 1 hour. Plates were washed 6 times with wash buffer. […] Plates were incubated at 37° C. for 1 hour, washed 6 times with wash buffer, and developed for 5-10 minutes with 50 L/well of TMB substrate, then quenched with 2M H₂SO₄. […] The ELISA results (OD450) were analyzed, and the binding curves were generated by Graphpad PRISM.

[2] = target: T2, Rattus norvegicus FcRn-alpha (rat, UniProt P13599 23-298); test: ELISA: rFcRn coated, antibody titrated, goat anti-human IgG Fab-HRP, OD450
T2 construct: Alpha chain alone; also called rFcRn; rat FcRn; not shown: His tag and Avi tag
T2 sequence: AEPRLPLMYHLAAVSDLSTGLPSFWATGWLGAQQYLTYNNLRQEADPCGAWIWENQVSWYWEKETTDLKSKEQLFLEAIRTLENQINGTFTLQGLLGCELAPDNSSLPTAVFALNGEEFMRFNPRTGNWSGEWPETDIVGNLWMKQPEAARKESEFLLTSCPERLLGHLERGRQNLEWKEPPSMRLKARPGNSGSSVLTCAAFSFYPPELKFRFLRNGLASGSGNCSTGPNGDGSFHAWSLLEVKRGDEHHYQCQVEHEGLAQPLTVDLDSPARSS

human B2M = target: T3, human B2M (human, UniProt P61769 21-119, limits assumed); test: ELISA: human B2M coated, antibody titrated, OD450
T3 construct: also called beta-2-microglobulin; not shown: His tag and Avi tag
T3 sequence (P61769 21-119 limits assumed): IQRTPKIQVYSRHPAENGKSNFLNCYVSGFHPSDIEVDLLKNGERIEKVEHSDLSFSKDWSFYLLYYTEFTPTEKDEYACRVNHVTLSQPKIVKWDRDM

[3] = target: T4, Cynomolgus monkey FcRn-alpha (cynomolgus monkey, UniProt Q8SPV9 24-297, limits assumed); test: ELISA: cynoFcRn coated, antibody titrated, goat anti-human IgG Fab-HRP, OD450
T4 construct: The printed entry looks like the full-length precursor (signal peptide, transmembrane and cytoplasmic parts); also called cynoFcRn; not shown: His tag and Avi tag
T4 sequence (Q8SPV9 24-297 limits assumed): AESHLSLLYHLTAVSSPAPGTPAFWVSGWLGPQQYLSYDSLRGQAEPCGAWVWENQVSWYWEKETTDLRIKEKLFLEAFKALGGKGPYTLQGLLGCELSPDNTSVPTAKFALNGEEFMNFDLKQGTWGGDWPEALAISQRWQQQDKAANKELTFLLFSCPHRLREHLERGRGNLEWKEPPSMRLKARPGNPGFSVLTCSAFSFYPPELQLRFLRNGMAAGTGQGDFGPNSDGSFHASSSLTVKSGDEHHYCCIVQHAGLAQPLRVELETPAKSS

[4] = target: human FcRn (human FCGRT and B2M) on stably transfected MDCK cells (human, UniProt P55899 24-365; P61769 21-119); test: cell-based or functional assay
human FcRn (human FCGRT and B2M) on stably transfected MDCK cells, sequence (P55899 24-365, chain 1 of 2): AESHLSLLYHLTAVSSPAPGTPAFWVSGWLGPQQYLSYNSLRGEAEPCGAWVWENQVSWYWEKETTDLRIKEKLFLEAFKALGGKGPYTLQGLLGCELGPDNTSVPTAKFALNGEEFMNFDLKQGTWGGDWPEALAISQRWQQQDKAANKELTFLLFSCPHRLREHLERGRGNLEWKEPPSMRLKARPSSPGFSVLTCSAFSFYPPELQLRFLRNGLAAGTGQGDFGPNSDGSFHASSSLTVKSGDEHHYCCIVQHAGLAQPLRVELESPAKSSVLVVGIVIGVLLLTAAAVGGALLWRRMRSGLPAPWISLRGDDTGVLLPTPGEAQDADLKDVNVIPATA
human FcRn (human FCGRT and B2M) on stably transfected MDCK cells, sequence (P61769 21-119, chain 2 of 2): as the sequence (P61769 21-119 limits assumed) above

human FCGRT [5] = target: T5, human FCGRT (human, UniProt P55899 24-297, biotinylated (Avi tag) in the blocking assays); test: blocking ELISA: human IgG coated, biotinylated human FCGRT plus titrated antibody, SA-HRP, OD450; blocked ligand: human IgG
T5 construct: Alpha chain alone, expressed in Expi293 cells with His and Avi tags; also called FCGRT of human FcRn protein; biotinylated human FCGRT; not shown: His tag and Avi tag
T5 sequence (P55899 24-297 limits assumed): as the sequence (Q8SPV9 24-297 limits assumed) above, with D39N, Q44E, S99G, G189S, N190S, M217L, T269S counted along it

human FCGRT [6] = target: T5, human FCGRT; test: ELISA: human FCGRT coated, antibody titrated, goat anti-human IgG Fab-HRP, OD450
Description: Measurement of the binding specificity of anti-FcRn antibodies to FCGRT and B2M by EILSA: Briefly, human FCGRT or B2M was coated on a 96-well plate at 4° C. overnight, after removing the coating solution, a blocking buffer containing 1% BSA was added into the plates followed by incubation at room temperature for 1 hour to block unspecific binding. Plates were then washed with wash buffer, and serial dilutions of anti-FcRn antibodies were added to the wells and incubated at room temperature for 1 hour. […] The wells were washed before adding 100 μL/well of TMB and incubated for 5-10 minutes at 37° C. 2M H₂SO₄ was used to stop the reaction. […] The ELISA results (OD450) were analyzed, and the binding curves were generated by Graphpad PRISM.

T1 sequence (P55899 24-297 limits assumed, chain 1 of 2): as the sequence (Q8SPV9 24-297 limits assumed) above, with D39N, Q44E, S99G, G189S, N190S, M217L, T269S counted along it
T1 sequence (P61769 21-119 limits assumed, chain 2 of 2): as the sequence (P61769 21-119 limits assumed) above

B1: ZLP37 (antibody, V domains shown)
VH: EVQLQQSGVELARPGASVKMSCKASGYTFSSYAMQWVKKRPGQGLEWIGYINPGTGYTNYNQKFKDKATLTADKSSSTAYMHLSSLTSEDSAVYFCARGGGLRGAMDYWGQGTSVTVSS
VL: DIVLTQSPALMSASPGEKVTMTCSANSSVNYMYWYQQKPGSSPKLWIYSTSNLASGVPARFSGSGSGTSYSLTISSMEAEDAATYYCHQRSSYPWTFGGGTKLEIK
notes: Full-length chimeric antibody with human IgG1 or IgG4 heavy constant and human kappa or lambda light constant domain
EC50 (read off the curve) [1]: ~9 nM | binding result [2]: no binding (tested: about 700 nM (Log[Ab] about 2.8)) | binding result (human B2M): no binding (tested: about 700 nM (Log[Ab] about 2.8)) | EC50 (read off the curve) [3]: ~6 nM | IgG Recycle IC50 [4]: 3.12 nM | IC50 (read off the curve) (human FCGRT [5]): ~40 nM | EC50 (read off the curve) (human FCGRT [6]): ~20 nM
